In general, Km refers to the concentration of substrate that gives half-maximal velocity.

Substrate in data set [1]: Cc1cn([C@H]2C[C@H](O)[C@@H](COP(=O)(O)O)O2)c(=O)[nH]c1=O
Put plainly: KM determination of thymidylate kinase substrates (coupled PK/LDH assay, Lineweaver-Burk plot). Format: biochemical, Saccharomyces cerevisiae. The conditions noted are these: other: substrate of thymidylate kinase from yeast; FIG. 5. The protocol:
(§1) FIG. 4: Graphical illustration of the kinetics of conversion of thymidylate and ATP by various concentration of thymidylate kinase in the assay. In an assay volume of 50 μl, 500 μM thymidylate, 500 μM ATP, 300 μM NADH, 400 μM PEP (phosphoenol pyruvate), 0.1 U pyruvate kinase and 0.1 U lactate dehydrogenase were employed. The conversion occurred on the basis of a decrease in absorption at 340 nm due to the reaction of the released ADP with PEP and NADH to form lactate and NAD.
(§2) FIG. 5: Lineweaver-Burk plot for determination of the KM value of dTMP (A) and ATP (B). The measured values are illustrated according to Lineweaver and Burk, i.e. 1/Vo=1/Vmax+1/S×(KM/Vmax), where Vo is the original reaction speed, Vmax is the maximum attainable reaction speed and S is the substrate concentration. Vmax and KM can then be calculated as the intercepts on the vertical axis and horizontal axis, 1/V and 1/KM. The KM value for dTMP is 0.17 mM […], the KM value for ATP is 0.16 mM […].
(§3) A preferred method (see Example 3) makes use of the fact that an adenosine diphosphate molecule (ADP) is released during the thymidylate kinase reaction. The activity, or the increase or decrease in activity, of the polypeptide according to the invention can thus be determined via detection of the resulting ADP. […]

Substrate in data set [2]: Nc1ncnc2c1ncn2[C@@H]1O[C@H](COP(=O)(O)OP(=O)(O)OP(=O)(O)O)[C@@H](O)[C@H]1O
The data set is described as above. Format: biochemical, Saccharomyces cerevisiae. The conditions noted are these: other: substrate of thymidylate kinase from yeast; FIG. 5. The protocol: as §1, §2, §3

B1: thymidylate kinase from yeast (Saccharomyces cerevisiae S288C) (protein)
chain: MMGRGKLILIEGLDRTGKTTQCNILYKKLQPNCKLLKFPERSTRIGGLINEYLTDDSFQLSDQAIHLLFSANRWEIVDKIKKDLLEGKNIVMDRYVYSGVAYSAAKGTNGMDLDWCLQPDVGLLKPDLTLFLSTQDVDNNAEKSGFGDERYETVKFQEKVKQTFMKLLDKEIRKGDESITIVDVTNKGIQEVEALIWQIVEPVLSTHIDHDKFSFF
notes: His6 (with pDest17 vector linker) (N); made in house; host or cells: E. coli BL21(DE3)pLysS
As for B1, the Km in data set [1] was found to be 170 µM; in data set [2], 160 µM.

Values taken from US20060171977A1, “Methods for the identification of fungicidally active compounds based on thymidylate kinase” (priority 2004, published 2006).
